Assay: soluble on expression in E. coli; label from the status in PepcDB or PDB records

Sequence | soluble on expression in E. coli
RIPVKYGNADGEYCKFPFLFNGKEYNSCTDTGRSDGFLWCSTTYNFEKDGKYGFCPHEALFTM | soluble
QVQLVESGGNLVQPGGSLRLSCAASGFTFGSFSMSWVRQAPGGGLEWVAGLSARSSLTHYADSVKGRFTISRDNAKNSVYLQMNSLRVEDTAVYYCARRSYDSSGYWGHFYSYMDVWGQGTLVTVS | soluble
MGSDKIHHHHHHMDQSWVNQAIAKIEADYQRSADTHLIKLELPMLPCIDIYLKDESTHPTGSLKHRLARSLFLYALCNGWITQDTPIIESSSGSTAVSEAYFARLLGLPFIAVMPASTAKKKIQQIEFYGGRCHFVEHSSQIYAESQRLAEELSGHYMDQFTYAERATDWRGNNNIANSIFEQMQREPHPVPSWIVMSPGTGGTSATIGRYIRYQCAKTKLCVVDPENSVFYDYYHSGDASISCAGASRIEGIGRPRAEPSFIPGVVDHMVKIDDSASIATIYWLETLIGRKAGPSTGTNLYGALQLASEMHANGQTGSIVTLLCDSGDRYLDTYYDKQWVDEHIGDITEYQAKLAAFNESGHLE | not soluble
GSMGDTKEQRILRYVQQNAKPGDPQSVLEAIDTYCTQKEWAMNVGDAKGQIMDAVIREYSPSLVLELGAYCGYSAVRMARLLQPGARLLTMEMNPDYAAITQQMLNFAGLQDKVTILNGASQDLIPQLKKKYDVDTLDMVFLDHWKDRYLPDTLLLEKCGLLRKGTVLLADNVIVPGTPDFLAYVRGSSSFECTHYSSYLEYMKVVDGLEKAIYQGPSSPDKS | soluble
MGSDKIHHHHHHMARYYMPAEGDSYLKKVWTWATTGKRFRPSFPRTIEFQTLSTCNAKCIFCPHKHSPKDIPHGRMDDALFRKIVDECARHFVGRVSPYLTNEPLMDKRMPEMLRYIHDKMPFFTKSKINTNAALLTEETGEALIRAGLTHLWISVNGYSPETYRTSMDLDLDRTLTNIDTFLATKRRLGAKNPKVIVTTVETNIVKPELDYARKYWKERDIVFKVHAMDNRAGADSLTFKASKPKLKRNCDLFLKQAYIVENGDMIICCHDWKQTVKVGNVAETSIKEVWNSRYFTDLIRDYVRGDYSRLGICAKCSS | not soluble
MGGRQSSVTEERPRSNSVDTAQVRVSSQHSSSQRANVMTAAEFMQTMRNARFLSSSSDSNASEDDAGPSHSTTHGNRSRGLHATPGRLHGHHSRRSVPVFMMDMKCPVCHKVVPSDDADIHLVMCLTRPKITYNDDVLKDDKGECSICLEDLEAGHKIARLPCLCIYHKQCIDDWFKRKNCCPEHPGDD | not soluble
MGSDKIHHHHHHMMKYIFRTFSCGSGDCIFLILKSGDYTLNLMIDCGKYTEEIDEYVRNSLKNKIDYLIVTHIDNDHINGLIKMLTQNPDLIIEHIIYNCYQRVINNEQPWTEQMKANVDRLYDQLPIVIDMLSQNVNEEKALTLAECILRKEEWRRAWQREYITDESPAIQLANNMGRIIFLSPSQVALDRLDVKYRKLFWQQLYKQKTEDYDGEETIYEALMRIAQLEEGEETKDENVNDDTINEQILKRYASRPLSKMDDNNIASIAFIWEYQGHRILLMGDADPEQVSNAIEKVYKDETKPVIFDLIKVSHHGSAHSTSCGLMDVIDSERFFFTGGGKERPSLQTLGRIIIRPLPNGIAYRDIRYNRPNEILNKLANLSVDEKGSLHIRVNHNENGYEVSC | not soluble
MAGDPMFKLKINNFQLGFKLVQWPVTNHLLKHFYVFPINNKGGLAIKRIISLALFKKRLNKDKINNCHVWEEELPDGSYDMGFNGNFNHMEKRKSGYVTQKQFSEFKDANNQRLIKIETTLAIQGEQINKLTQTVEKQGEQINQLVQVVLLQGASKLENFKWSKKHKDKSLMPAWIVWKIFWWKVLEHHHHHH | not soluble
MIQEPARVQAAPTFEATIREDNAKYQETAAGGTYSSPNCSCSQRRTRPTEPTKDSPTSTITTIPIVIDSKPNPRILLIRVPTSNRGSNSNNNSNSTRSGTEHRAPRTRIIRIPFLPGSVPTRPPSNQAAPATSSLVNPIGSARRCRISTYPTTGTLTSRSQPETVAGLPTTAMVNQTVPVLSSAPQTQTLAAMAGIQLTGADEPPSRRDVSGAMPTATVEEIDVPVFIDEYLQDIEATSSTCNSENGKEIFTETDILDFDINMFAEEDLIELEGKKTDPFSPAMDGMNNDNLDDDFLQLNDLLNEEETFDMSSMSGVGIDINQEQELDFINIFHNSQPTAMLTSSEDPYLATYSQATSTSSTTKFITEEPLLADMTSFDISYTSSQELGFGLVEDVSGSFASSCSDVAAAIPAPIQHPIITNIKRSAPAPVESQPTKRSRLMLQIKTELAPAFSPTTPEIINQLLNDDRFEAPTTSTSTSTSNTSISSSTHADIVEDLRSAEEETTTDFSAPNTPHSNYSASSSCAAPTCQTGYGGFLTAPTSPAYSTASTSVFSPSPASGISGKRKRGRPAKDHADGPDPVLMSSMKSEEERKAYQDRLKNNEASRVSRRKTKVREEEEKRAEDTLLAENLRLRARADEVASRERKFKKYLMERQRQKSTYVKQEQD | not soluble
MGSDKIHHHHHHMNTYHPFSLTTPSTLMIQDWAQTNQNNKEVIAGFTTKNGGVSQKPFESLNTGLHVHDKDADVVKNREYIADMFNTDLQSWVFADQTHDNRVQKVTQRDRGKGAREYHTALKATDGIYTNEKNVFLALCFADCVPLFFYDPVKSLVGVAHAGWKGTVKQIGREMVKQWTEKEGSNPSDIYAVIGPSISGACYTVDDRVMDAVRALPVSADLAANQTAKAQYQLDLKELNRLILMDSGLASEQISVSGLCTESEPSLFYSHRRDQGKTGRMMSFIGMKEA | not soluble
MGSDKIHHHHHHMNAIASRQRPLLPVREAVVTRVRGSAPTAVGASMCLLEDGSLLGTVGGGRMEYQVCQVLCSPRSEAPPALLSFTLGTADDQCCGGQVEICVLDVPLFFSELYQPGASRLYQRDSAGRLRLVAGMTRLGREIGSFDALTVLLRANAPGMDVEERHFALPAPHHQPLWIFGAGHVGRAIASMAHKLDFASSVFDQRPEWADPAAFPPEVTLVDTWTWADLQAPATDAMVLIMTYSHAMDYALLEHFIGEPLAYLGVIASRSKAARFSHALSRAGHDIPDYLHMPMGLPGMGKKPPEIAISVLAELLQLRHKKTDF | not soluble
MGSDKIHHHHHHMILFEWGTYNALSTLKQAALLGTRITEIPPAVLSRRLPSGYYESYKKLGGEYFTSILAHGPYYSLSSEKGLKGHLSAIEKATLCGAEIYNYHLGKRVGDDLNYHLEVLKKFSEVNNEMIYSPEPATNIGEFGTLDELEELIKAAKEEDIKIIPSLQLENIFLNELGVYEKDDLDEAAEKADVDWWLKIFRRMDKISDYIMHFRFSQVIGLKYGKRFYKKRVPLGKGYPPVEPLTEALATYLVDNATRGGFKKVLFVYTGLPEVKYRDLIDLYAMIMKKSIDKLMSRESQVEYGDFYKVMSSEEEE | not soluble
MGSDKIHHHHHHMVTSPSLKGLQAFEAAARAGSFAAAAEELSVSAAAVSQLIRTVEEQMGRKLFHRVNRKVVLTEAGVEILPRLTMAFQEIGSVSRELDGDAFRPRLVVSVPPSMAMGWLSQRLAGFVASHGAADISLRGDDDPVPFDRELIDIRLSYGPHYREHPTEDIARDAVYPVCAPGLASAIKADGGPLAGLPLIHTDWGPTGASFPSWRNWFEAEGVQPGRAAQRGLSANSSRAALDLAISGLGVTLAQGVYCAEALEDGRLVRPAARVIALRQPYCLTIPERSARRDVVAAFRDWLIEECRRAVGSPALR | not soluble
MGSDKIHHHHHHMTLDSIERAIADIANGKPVVVVDSEDRENEGDLIFAADKATPELVAFMVRYSSGYICASLTSEECDRLQLPPMTSHNEDARGTAYAVTVDANTGTTGISATSRADTLRKLADSQFGPQDFTRPGHVVPLRAKAGGVLERAGHTEAAVDLARMAGLNPAGVLCEVVSEDDPTDMARAPELRRFADRHDLALISIEQLIEWRRRYELLVERAVSTQLPTEFGRFTAVGYRGIVDGVEHIALVAGDITSDEGKDVLLRVHSECLTGDVLGSRRCDCGPQLQASLRAISERGRGVVVYLRGHEGRGIGLLHKLQAYHLQDEGADTVDANKALGLPVDARNYSVAAHILRDLGVQSVCLLTNNPEKSLELERYGVKVTGREPVKVEVHEDNIRYLTTKRDRMNHDLPWIAEYKKEQS | not soluble

— the DeepSol protein solubility set
